In patent US20140256613A1:

Columns and labels:
[1] = molecular target: full-length human TLR4 expressed as fusion protein with GAL4 (pTLR4) (human); assay: flow cytometry of pSPA + pTLR4 transfected HEK293 cells stained with isotype control antibody [A)(iii]
[2] = molecular target: full-length human TLR4 expressed as fusion protein with GAL4 (pTLR4) (human); assay: flow cytometry of pSPA-mutant + pTLR4 transfected HEK293 cells stained with isotype control antibody [A)(iii]
[3] = molecular target: full-length human TLR4 expressed as fusion protein with GAL4 (pTLR4) (human); assay: cell-based or functional assay

Row | % positive cells in region R [1] [%] | % positive cells in region R [2] [%] | Substance | LPS-induced NF-κB luciferase reporter activity in co-transfected HEK293 cells [3] [RLU]
1 | 1.06 | 1.65 | (IC) (antibody) | 
2 |  |  | SPA-mutant lacking SPA4 peptide region, expressed as fusion protein with VP16 (pSPA-mutant) (from UniProt Q8IWL2 21-248) | 44
